Test results published in IntAct's records for PubMed 23871208.

B1: Tyrosine-protein phosphatase non-receptor type 22 (Homo sapiens), Q9Y2R2 (parent)
chain: MDQREILQKFLDEAQSKKITKEEFANEFLKLKRQSTKYKADKTYPTTVAEKPKNIKKNRYKDILPYDYSRVELSLITSDEDSSYINANFIKGVYGPKAYIATQGPLSTTLLDFWRMIWEYSVLIIVMACMEYEMGKKKCERYWAEPGEMQLEFGPFSVSCEAEKRKSDYIIRTLKVKFNSETRTIYQFHYKNWPDHDVPSSIDPILELIWDVRCYQEDDSVPICIHCSAGCGRTGVICAIDYTWMLLKDGIIPENFSVFSLIREMRTQRPSLVQTQEQYELVYNAVLELFKRQMDVIRDKHSGTESQAKHCIPEKNHTLQADSYSPNLPKSTTKAAKMMNQQRTKMEIKESSSFDFRTSEISAKEELVLHPAKSSTSFDFLELNYSFDKNADTTMKWQTKAFPIVGEPLQKHQSLDLGSLLFEGCSNSKPVNAAGRYFNSKVPITRTKSTPFELIQQRETKEVDSKENFSYLESQPHDSCFVEMQAQKVMHVSSAELNYSLPYDSKHQIRNASNVKHHDSSALGVYSYIPLVENPYFSSWPPSGTSSKMSLDLPEKQDGTVFPSSLLPTSSTSLFSYYNSHDSLSLNSPTNISSLLNQESAVLATAPRIDDEIPPPLPVRTPESFIVVEEAGEFSPNVPKSLSSAVKVKIGTSLEWGGTSEPKKFDDSVILRPSKSVKLRSPKSELHQDRSSPPPPLPERTLESFFLADEDCMQAQSIETYSTSYPDTMENSTSSKQTLKTPGKSFTRSKSLKILRNMKKSICNSCPPNKPAESVQSNNSSSFLNFGFANRFSKPKGPRNPPPTWNI
partner: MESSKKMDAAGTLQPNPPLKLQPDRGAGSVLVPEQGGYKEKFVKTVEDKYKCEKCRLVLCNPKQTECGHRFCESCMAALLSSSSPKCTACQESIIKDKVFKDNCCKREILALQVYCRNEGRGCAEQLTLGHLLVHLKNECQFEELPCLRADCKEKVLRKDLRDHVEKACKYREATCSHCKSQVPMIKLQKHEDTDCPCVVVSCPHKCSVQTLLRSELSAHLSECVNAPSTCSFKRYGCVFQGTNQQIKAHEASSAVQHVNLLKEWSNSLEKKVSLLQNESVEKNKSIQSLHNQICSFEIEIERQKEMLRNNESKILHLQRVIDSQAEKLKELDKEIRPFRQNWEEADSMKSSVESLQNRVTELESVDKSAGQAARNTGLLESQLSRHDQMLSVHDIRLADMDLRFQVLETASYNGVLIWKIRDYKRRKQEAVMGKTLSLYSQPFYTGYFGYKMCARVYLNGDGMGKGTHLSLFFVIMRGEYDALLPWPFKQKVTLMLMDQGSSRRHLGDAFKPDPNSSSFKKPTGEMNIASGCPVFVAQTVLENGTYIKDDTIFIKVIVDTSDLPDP

Variants of: B1
Details: with traf3_mouse Traf3, Q60803

Variant | effect of a mutation on the interaction
R620W | decreasing interaction strength
